Patent publication US20240084044A1, “Heteromultivalent Nucleic Acid Scaffolds and Uses Thereof” (George Mason University, priority 2022, published 2024)
Where “and” joins values, the source holds several entries; their conditions need not be identical. Identical values can stand only once. Bridges are numbered along the chain shown (N, C = ends). Roman numbers before positions name the chains, in order.

Molecular target: T1, ST2/IL-33 binary complex (Homo sapiens, UniProt O95760+Q01638)
T1 construct: included the extracellular domains, K19-F328 and S21-E359, respectively; the cleaved mature proteins, S112-T270, A117-S269, and R2-S310, respectively; purchased Sino Biologicals ST2 10105-HCCH; IL-33 10368-HNAE; host or cells: ST2: HEK293; IL-33: E. coli
T1 sequence (Q01638 19-328 isoform Q01638-2): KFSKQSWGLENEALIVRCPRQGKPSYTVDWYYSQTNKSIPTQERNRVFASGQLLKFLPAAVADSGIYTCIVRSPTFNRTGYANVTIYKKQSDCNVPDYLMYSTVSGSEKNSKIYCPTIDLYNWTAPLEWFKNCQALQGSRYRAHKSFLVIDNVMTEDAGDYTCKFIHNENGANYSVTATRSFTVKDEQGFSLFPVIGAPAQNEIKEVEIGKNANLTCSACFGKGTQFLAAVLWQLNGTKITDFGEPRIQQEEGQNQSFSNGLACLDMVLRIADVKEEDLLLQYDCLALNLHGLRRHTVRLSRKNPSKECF
T1 sequence (O95760 112-270): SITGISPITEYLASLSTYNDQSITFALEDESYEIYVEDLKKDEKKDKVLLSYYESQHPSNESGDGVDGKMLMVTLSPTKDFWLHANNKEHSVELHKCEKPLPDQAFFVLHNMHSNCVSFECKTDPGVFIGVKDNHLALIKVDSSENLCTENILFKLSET
Assay: SPR dissociation constant for the ST2/IL-33 binary complex
Format: binding
Source text: Recombinant ST2 with truncated FLAG (DDDDK) tag (Cat. #10105-HCCH), His-tagged IL1RAcP (Cat. #10121-H08H), IL-33 (Cat. #10368-HNAE), IL-1β (Cat. #10139-HNAE), and FLAG-tagged SIRT5 (Cat. #19202-H22E) were purchased from Sino Biologicals (Wayne, PA). ST2 and IL1RAcP were expressed in HEK293 cells and included the extracellular domains, K19-F328 and S21-E359, respectively. IL-33, IL-1β, and SIRT5 were expressed in E. coli and included the residue sequence of the cleaved mature proteins, S112-T270, A117-S269, and R2-S310, respectively. Lyophilized ST2, and IL1RAcP were reconstituted in ultrapure (18.5 MΩ) water to a concentration of 0.5 mg/mL (5.6 μM) and stored at −80° C. until use. SIRT5 was reconstituted to 0.2 mg/mL (2.87 μM). To prevent oxidation, IL-33 was reconstituted in 10 mM β-mercaptoethanol (Sigma-Aldrich) to a concentration of 0.1 mg/mL and IL-1β was reconstituted to 0.250 mg/mL. All peptides were purchased from Peptide 2.0 (Chantilly, VA) and designed based on IL1RAcP hotspot residues known to interact with IL-33/ST2 and surrounding residues based on the canonical sequence of IL1RAcP (Uniprot #Q9NPH3). All peptides were modified with acetylated N-terms and amidated C-terms to optimize stability and cyclic peptides cyclized via thioether or disulfide bond. Candidate peptides for the final molecule were also modified with an azido-Lysine and additional N-term alanine or cysteine, to provide the azide group for copper free click chemistry and maintain cyclization. Peptides were stored at −20° C. in lyophilized aliquots of 100 μg or 200 μg and −80° C. after reconstitution in sterile DMSO to a concentration of 10 mM.
SPR experiments were carried out on an OpenSPR instrument (Nicoya). Gold nanoparticle sensor chips (Nicoya) were functionalized by incubation in a solution of ethanol and 10 mM 11-Mercaptoundecanoic acid (MUDA) at RT for a minimum of 48 h, then stored in ethanol at 4° C. until use. Chips were activated with a solution of 200 mM EDC and 50 mM NHS for 3 m at RT. […] Data was analyzed with TraceDrawer software to a 1:1 fit model.

- increase in affinity compared to the individual peptides and IL-1RAcP (SPR KD comparison): ~100 fold and 100 fold
- Kd (SPR, 1:1 fit, read-out: KD (affinity) to the binary ST2/IL-33 complex): 195 nM and < 200 nM
Substance: MSTOP: 3WJ DNA scaffold whose three DBCO staple strands carry cyclized azidolysine IL-1RAcP hotspot peptides; decoy for IL-33/ST2 (peptide 1 Ac-CKEYGIQRITC-NH2; peptide 2 Ac-AKVGSPKNAVPPC-NH2; peptide 3 Ac-CKGEVAKAAKVKC-NH2; disulfide I:1-I:11, III:1-III:13; thioether II:1-II:13; not fully specified (some residues); also: three peptides held on a 3-way junction DNA scaffold via DBCO staple strands)
